Data taken from patent publication US20250325672A1.
Non-standard residues stand in square brackets, D forms with d. No end group written: not given here. Sar = CNCC(=O)O

Legend:
[1] = target: wild-type (WT) S1 domain of the SARS-COV-2 Spike Protein (ACROBiosystems, S1N-C82E8) (SARS-CoV-2), P0DTC2; experiment: FP direct binding
[2] = target: COVID-19 S1 Spike Protein Mutant A475V (SARS-CoV-2), P0DTC2; experiment: FP direct binding
[3] = target: COVID-19 S1 Spike Protein Mutant E484K (SARS-CoV-2), P0DTC2; experiment: FP direct binding
[4] = target: COVID-19 S1 Spike Protein Mutant F490L (SARS-CoV-2), P0DTC2; experiment: FP direct binding
[5] = target: COVID-19 S1 Spike Protein Mutant G476S (SARS-CoV-2), P0DTC2; experiment: FP direct binding
[6] = target: COVID-19 S1 Spike Protein Mutant K417N, E484K, N501Y (SARS-CoV-2), P0DTC2; experiment: FP direct binding
[7] = target: COVID-19 S1 Spike Protein Mutant L452R (SARS-CoV-2), P0DTC2; experiment: FP direct binding
[8] = target: COVID-19 S1 Spike Protein Mutant N439K (SARS-CoV-2), P0DTC2; experiment: FP direct binding
[9] = target: COVID-19 S1 Spike Protein Mutant N501Y (SARS-CoV-2), P0DTC2; experiment: FP direct binding
[10] = target: COVID-19 S1 Spike Protein Mutant V483A (SARS-CoV-2), P0DTC2; experiment: FP direct binding
[11] = target: COVID-19 S1 Spike Protein Mutant Y453F (SARS-CoV-2), P0DTC2; experiment: FP direct binding
[12] = target: COVID-19 S1 Spike Protein Mutant A262S (SARS-CoV-2), P0DTC2; experiment: FP direct binding
[13] = target: COVID-19 S1 Spike Protein Mutant P272L (SARS-CoV-2), P0DTC2; experiment: FP direct binding
[14] = target: COVID-19 S1 Spike Protein Mutant N354D, D364Y (SARS-CoV-2), P0DTC2; experiment: FP direct binding
[15] = target: Biotinylated 2019-nCoV (COVID-19) S1 protein (16-685), His, Avitag (SARS-CoV-2), P0DTC2; experiment: SPR, Biacore T200, geomean

B1: BCY16534 (peptide)
peptide: CASPDNPVCRFYC
modifications: not checked
For B1, which Kd [1] is on record?
The Kd was 381 nM.

B2: BCY15299 (peptide)
peptide: ACEDHDWVYCSTCA[Sar][Sar][Sar][Sar][Sar][Sar][KFl]
modifications: cysteine pairing not given here
Which results are given for B2?
Kd [2]: 710 nM; Kd [3]: 475 nM; Kd [4]: 441 nM; Kd [5]: 944 nM; Kd [6]: 676 nM; Kd [7]: 548 nM; Kd [8]: 531 nM; Kd [9]: 935 nM; Kd [10]: 988 nM; Kd [11]: 579 nM

B3: BCY15324 (peptide)
peptide: ACRQSQCDWWAIRSFCA[Sar][Sar][Sar][Sar][Sar][Sar][KFl]
modifications: cysteine pairing not given here
How did the Kd [2] turn out when B3 was run?
Its Kd is 629 nM.

What about the Kd [3] of the same binder?
Its Kd is 1490 nM.

And the Kd [5]?
Its Kd is 588 nM.

What about the Kd [8] of the same binder?
The Kd was 529 nM.

And the Kd [9]?
Its Kd is 1260 nM.

What about the Kd [10] of the same binder?
Its Kd is 751 nM.

And the Kd [11]?
The Kd was 366 nM.

B4: BCY15437 (peptide)
peptide: ACFDDWTCYIQMCA[Sar][Sar][Sar][Sar][Sar][Sar]K(Fl)
modifications: not fully specified; cysteine pairing not given here
B4 was tested. Which Kd [12] did it give?
Its Kd is 15 nM.

And the Kd [13]?
The Kd was 17 nM.

B5: BCY16287 (peptide)
peptide: ACDVCGLNAFNRCA[Sar][Sar][Sar][Sar][Sar][Sar][KFl]
modifications: cysteine pairing not given here
Which Kd [2] does the source give for B5 here?
The Kd was 54 nM.

And the Kd [3]?
The Kd was 55 nM.

And the Kd [4]?
The Kd was 49 nM.

And the Kd [5]?
The Kd was 58 nM.

And the Kd [7]?
Its Kd is 53 nM.

And the Kd [14]?
Its Kd is 1120 nM.

What about the Kd [10] of the same binder?
Its Kd is 69 nM.

B6: BCY16905 (peptide)
peptide: CRNPDNPVCRFYC
modifications: not checked
Which Kd [15] does the source give for B6 here?
The Kd was 10 nM.

B7: BCY16312 (peptide)
peptide: CPYVAGRGTCLLC
modifications: not checked
B7 was tested. Which Kd [1] did it give?
Its Kd is 759 nM.

B8: BCY16540 (peptide)
peptide: CYNHANPVCRYYC
modifications: not checked
Which Kd [1] does the source give for B8 here?
Its Kd is over 883 nM.
